Reference: PMC3581732 (Molecular microbiology, 2013)

Target: the molecule itself
Test: cross-linking

B1: TolC Y362F/R367E (YFRE^His), leaky/open mutant with a C-terminal 6His-tag (natural protein)
chain: ENLMQVYQQARLSNPELRKSAADRDAAFEKINEARSPLLPQLGLGADYTYSNGYRDANGINSNATSASLQLTQSIFDMSKWRALTLQEKAAGIQDVTYQTDQQTLILNTATAYFNVLNAIDVLSYTQAQKEAIYRQLDQTTQRFNVGLVAITDVQNARAQYDTVLANEVTARNNLDNAVEQLRQITGNYYPELAALNVENFKTDKPQPVNALLKEAEKRNLSLLQARLSQDLAREQIRQAQDGHLPTLDLTASTGISDTSYSGSKTRGAAGTQYDDSNMGQNKVGLSFSLPIYQGGMVNSQVKQAQYNFVGASEQLESAHRSVVQTVRSSFNNINASISSINAYKQAVVSAQSSLDAMEAGFSVGTETIVDVLDATTTLYNAKQELANARYNYLINQLNIKSALGTLNEQDLLALNNALSKPVSTNPENVAPQTPEQNAIADGYAPDSPAPVVQQTSARTTTSNGHNPFRN
stoichiometry N: 3
